In paper PMC2756588:

T1: Cyk3, Q07533
T1 sequence (Q07533 1-83, looked up): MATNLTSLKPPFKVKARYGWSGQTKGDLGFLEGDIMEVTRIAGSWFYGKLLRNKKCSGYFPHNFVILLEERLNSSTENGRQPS

T2: Boi1, P38041
T2 sequence (P38041 1-86, looked up): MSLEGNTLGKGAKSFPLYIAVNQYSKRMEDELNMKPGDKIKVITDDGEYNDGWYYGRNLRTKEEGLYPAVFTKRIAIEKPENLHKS

T3: Sla1-3, P32790
T3 sequence (P32790 344-424, looked up): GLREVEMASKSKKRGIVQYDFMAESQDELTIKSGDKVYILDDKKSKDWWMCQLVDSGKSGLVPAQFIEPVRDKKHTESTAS

T4: Cdc25, P04821
T4 sequence (P04821 50-136, looked up): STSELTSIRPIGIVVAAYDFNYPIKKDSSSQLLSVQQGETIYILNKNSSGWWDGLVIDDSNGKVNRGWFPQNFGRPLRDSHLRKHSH

T5: Bud14, P27637
T5 sequence (P27637 247-328, looked up): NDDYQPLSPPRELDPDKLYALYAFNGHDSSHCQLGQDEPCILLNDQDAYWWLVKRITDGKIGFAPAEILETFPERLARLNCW

T6: Bbc1, P47068
T6 sequence (P47068 1-78, looked up): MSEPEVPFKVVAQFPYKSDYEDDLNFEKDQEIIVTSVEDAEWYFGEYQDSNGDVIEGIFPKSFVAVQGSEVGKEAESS

T7: Nbp2, Q12163
T7 sequence (Q12163 103-180, looked up): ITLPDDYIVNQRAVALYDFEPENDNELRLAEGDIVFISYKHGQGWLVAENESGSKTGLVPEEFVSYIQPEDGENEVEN

T8: Pex13, P80667
T8 sequence (P80667 295-386, looked up): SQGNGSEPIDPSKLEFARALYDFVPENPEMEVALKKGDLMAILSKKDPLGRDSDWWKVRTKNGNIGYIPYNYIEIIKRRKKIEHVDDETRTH

T9: Boi2, P39969
T9 sequence (P39969 32-116, looked up): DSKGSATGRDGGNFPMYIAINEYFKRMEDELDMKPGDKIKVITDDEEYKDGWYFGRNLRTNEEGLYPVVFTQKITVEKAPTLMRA

T10: Pin3, Q06449
T10 sequence (Q06449 53-122, looked up): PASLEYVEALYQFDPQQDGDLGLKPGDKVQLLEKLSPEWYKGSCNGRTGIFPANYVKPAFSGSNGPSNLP

T11: Hof1, Q05080
T11 sequence (Q05080 590-669, looked up): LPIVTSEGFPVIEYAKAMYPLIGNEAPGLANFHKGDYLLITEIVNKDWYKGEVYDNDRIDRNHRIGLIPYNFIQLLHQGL

T12: Lsb1, P53281
T12 sequence (P53281 45-122, looked up): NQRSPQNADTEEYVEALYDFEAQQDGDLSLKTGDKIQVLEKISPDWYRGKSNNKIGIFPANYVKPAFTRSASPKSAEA

T13: Lsb4, P32793
T13 sequence (P32793 402-468, looked up): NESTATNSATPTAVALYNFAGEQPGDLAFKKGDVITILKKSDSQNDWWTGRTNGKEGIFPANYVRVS

T14: Lsb3, P43603
T14 sequence (P43603 385-451, looked up): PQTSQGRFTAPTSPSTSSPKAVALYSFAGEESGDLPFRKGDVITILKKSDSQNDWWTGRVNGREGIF

T15: Sla1-2, P32790
T15 sequence (P32790 60-140, looked up): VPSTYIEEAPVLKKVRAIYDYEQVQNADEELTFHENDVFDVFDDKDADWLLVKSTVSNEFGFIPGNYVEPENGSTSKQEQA

T16: Bzz1-1, P38822
T16 sequence (P38822 478-572, looked up): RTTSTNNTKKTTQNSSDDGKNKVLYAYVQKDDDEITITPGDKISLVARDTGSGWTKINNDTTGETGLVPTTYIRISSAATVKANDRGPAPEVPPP

T17: Abp1, P15891
T17 sequence (P15891 535-592, looked up): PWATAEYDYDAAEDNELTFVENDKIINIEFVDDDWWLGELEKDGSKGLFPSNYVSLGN

T18: Bzz1-2, P38822
T18 sequence (P38822 568-633, looked up): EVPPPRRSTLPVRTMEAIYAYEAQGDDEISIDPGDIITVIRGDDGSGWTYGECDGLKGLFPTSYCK

T19: Myo5, Q04439
T19 sequence (Q04439 1072-1160, looked up): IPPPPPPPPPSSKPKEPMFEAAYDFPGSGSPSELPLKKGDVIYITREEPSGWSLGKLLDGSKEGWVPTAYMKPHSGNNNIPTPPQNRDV

T20: Fus1, P11710
T20 sequence (P11710 432-512, looked up): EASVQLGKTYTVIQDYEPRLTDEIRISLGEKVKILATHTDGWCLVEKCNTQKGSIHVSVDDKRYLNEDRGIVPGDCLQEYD

T21: Hse1, P38753
T21 sequence (P38753 208-285, looked up): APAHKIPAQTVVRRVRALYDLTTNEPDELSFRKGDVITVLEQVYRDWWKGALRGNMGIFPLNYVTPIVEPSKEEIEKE


The binders below were run against T1, Cyk3, Q07533 (assay: SPOT array). Settings: median of control spots 1451.
SSSSSPPPLPTRRDH showed an SPOT intensity of 1.
For KKAPPPVVKPKPRNF, the SPOT intensity was 5.
With QNTPPLPPKPKSPHL the SPOT intensity was 0.

The binders below were run against T2, Boi1, P38041 (assay: SPOT array). Settings: median of control spots 1162.
SSSSSPPPLPTRRDH was tested, and the SPOT intensity was 4.
KKAPPPVVKPKPRNF showed an SPOT intensity of 0.
With QNTPPLPPKPKSPHL the SPOT intensity was 3.

Each binder was assayed against T3, Sla1-3, P32790 (assay: SPOT array). Settings: median of control spots 5475.
SSSSSPPPLPTRRDH showed an SPOT intensity of 7.
KKAPPPVVKPKPRNF showed an SPOT intensity of 0.
For QNTPPLPPKPKSPHL, the SPOT intensity was 0.

Each binder was assayed against Bem1-2, P29366 (assay: SPOT array). Settings: median of control spots 4347.
Bem1-2, P29366, sequence (P29366 139-227): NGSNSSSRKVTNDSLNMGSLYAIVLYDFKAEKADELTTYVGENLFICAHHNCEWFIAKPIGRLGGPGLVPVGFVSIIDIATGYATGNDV
In the case of SSSSSPPPLPTRRDH, the SPOT intensity is reported as 13.
Binder KKAPPPVVKPKPRNF has an SPOT intensity of 0.
Work on QNTPPLPPKPKSPHL yielded an SPOT intensity of 16.

These binders were tested against T4, Cdc25, P04821 (assay: SPOT array). Settings: median of control spots 969.
In the case of SSSSSPPPLPTRRDH, the SPOT intensity is reported as 15.
KKAPPPVVKPKPRNF showed an SPOT intensity of 15.
For QNTPPLPPKPKSPHL, the SPOT intensity was 0.

The binders below were run against T5, Bud14, P27637 (assay: SPOT array). Settings: median of control spots 956.
With SSSSSPPPLPTRRDH the SPOT intensity was 0.
KKAPPPVVKPKPRNF showed an SPOT intensity of 3.
In the case of QNTPPLPPKPKSPHL, the SPOT intensity is reported as 0.

The binders below were run against Rvs167, P39743 (assay: SPOT array). Settings: median of control spots 2707.
Rvs167, P39743, sequence (P39743 419-482): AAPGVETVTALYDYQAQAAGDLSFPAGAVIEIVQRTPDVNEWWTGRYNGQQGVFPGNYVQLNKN
SSSSSPPPLPTRRDH showed an SPOT intensity of 3540.
For KKAPPPVVKPKPRNF, the SPOT intensity was 1.
QNTPPLPPKPKSPHL was tested, and the SPOT intensity was 8.

These binders were tested against T6, Bbc1, P47068 (assay: SPOT array). Settings: median of control spots 796.
SSSSSPPPLPTRRDH gave an SPOT intensity of 3.
Work on KKAPPPVVKPKPRNF yielded an SPOT intensity of 2.
Binder QNTPPLPPKPKSPHL has an SPOT intensity of 0.

What follows are binders tested against T7, Nbp2, Q12163 (assay: SPOT array). Settings: median of control spots 357.
Work on SSSSSPPPLPTRRDH yielded an SPOT intensity of 0.
KKAPPPVVKPKPRNF was tested, and the SPOT intensity was 0.
QNTPPLPPKPKSPHL gave an SPOT intensity of 1.

The binders below were run against Sho1, P40073 (assay: SPOT array). Settings: median of control spots 1148.
Sho1, P40073, sequence (P40073 287-367): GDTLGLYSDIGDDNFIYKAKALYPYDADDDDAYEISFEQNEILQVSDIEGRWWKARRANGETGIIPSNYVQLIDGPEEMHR
Work on SSSSSPPPLPTRRDH yielded an SPOT intensity of 0.
For KKAPPPVVKPKPRNF, the SPOT intensity was 21.
For QNTPPLPPKPKSPHL, the SPOT intensity was 72.

The binders below were run against T8, Pex13, P80667 (assay: SPOT array). Settings: median of control spots 1341.
With SSSSSPPPLPTRRDH the SPOT intensity was 467.
Work on KKAPPPVVKPKPRNF yielded an SPOT intensity of 4.
For QNTPPLPPKPKSPHL, the SPOT intensity was 309.

Each binder was assayed against T9, Boi2, P39969 (assay: SPOT array). Settings: median of control spots 1161.
For SSSSSPPPLPTRRDH, the SPOT intensity was 4.
KKAPPPVVKPKPRNF gave an SPOT intensity of 3.
QNTPPLPPKPKSPHL showed an SPOT intensity of 0.

The binders below were run against T10, Pin3, Q06449 (assay: SPOT array). Settings: median of control spots 2171.
SSSSSPPPLPTRRDH was tested, and the SPOT intensity was 0.
KKAPPPVVKPKPRNF gave an SPOT intensity of 1.
For QNTPPLPPKPKSPHL, the SPOT intensity was 0.

These binders were tested against T11, Hof1, Q05080 (assay: SPOT array). Settings: median of control spots 4086.
Binder SSSSSPPPLPTRRDH has an SPOT intensity of 16.
In the case of KKAPPPVVKPKPRNF, the SPOT intensity is reported as 10.
QNTPPLPPKPKSPHL gave an SPOT intensity of 1320.

What follows are binders tested against Bem1-1, P29366 (assay: SPOT array). Settings: median of control spots 4282.
Bem1-1, P29366, sequence (P29366 55-141): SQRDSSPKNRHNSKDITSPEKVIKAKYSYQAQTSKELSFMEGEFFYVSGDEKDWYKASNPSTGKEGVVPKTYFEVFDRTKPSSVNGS
SSSSSPPPLPTRRDH gave an SPOT intensity of 8.
Binder KKAPPPVVKPKPRNF has an SPOT intensity of 0.
QNTPPLPPKPKSPHL gave an SPOT intensity of 0.

What follows are binders tested against T12, Lsb1, P53281 (assay: SPOT array). Settings: median of control spots 388.
SSSSSPPPLPTRRDH showed an SPOT intensity of 463.
Binder KKAPPPVVKPKPRNF has an SPOT intensity of 4.
QNTPPLPPKPKSPHL was tested, and the SPOT intensity was 0.

The binders below were run against T13, Lsb4, P32793 (assay: SPOT array). Settings: median of control spots 397.
SSSSSPPPLPTRRDH was tested, and the SPOT intensity was 748.
With KKAPPPVVKPKPRNF the SPOT intensity was 0.
Work on QNTPPLPPKPKSPHL yielded an SPOT intensity of 231.

Each binder was assayed against T14, Lsb3, P43603 (assay: SPOT array). Settings: median of control spots 406.
With SSSSSPPPLPTRRDH the SPOT intensity was 485.
In the case of KKAPPPVVKPKPRNF, the SPOT intensity is reported as 0.
QNTPPLPPKPKSPHL gave an SPOT intensity of 249.

These binders were tested against T15, Sla1-2, P32790 (assay: SPOT array). Settings: median of control spots 712.
In the case of SSSSSPPPLPTRRDH, the SPOT intensity is reported as 0.
Work on KKAPPPVVKPKPRNF yielded an SPOT intensity of 2.
With QNTPPLPPKPKSPHL the SPOT intensity was 1.

Each binder was assayed against T16, Bzz1-1, P38822 (assay: SPOT array). Settings: median of control spots 4446.
Binder SSSSSPPPLPTRRDH has an SPOT intensity of 6.
For KKAPPPVVKPKPRNF, the SPOT intensity was 10.
In the case of QNTPPLPPKPKSPHL, the SPOT intensity is reported as 0.

Each binder was assayed against T17, Abp1, P15891 (assay: SPOT array). Settings: median of control spots 935.
Work on SSSSSPPPLPTRRDH yielded an SPOT intensity of 0.
In the case of KKAPPPVVKPKPRNF, the SPOT intensity is reported as 899.
QNTPPLPPKPKSPHL showed an SPOT intensity of 16.

Each binder was assayed against Myo3, P36006 (assay: SPOT array). Settings: median of control spots 468.
SSSSSPPPLPTRRDH gave an SPOT intensity of 69.
With KKAPPPVVKPKPRNF the SPOT intensity was 0.
QNTPPLPPKPKSPHL showed an SPOT intensity of 0.

Each binder was assayed against GST (assay: SPOT array). Settings: median of control spots 978.
Binder SSSSSPPPLPTRRDH has an SPOT intensity of 1.
Binder KKAPPPVVKPKPRNF has an SPOT intensity of 3.
QNTPPLPPKPKSPHL showed an SPOT intensity of 2.

What follows are binders tested against T18, Bzz1-2, P38822 (assay: SPOT array). Settings: median of control spots 4538.
With SSSSSPPPLPTRRDH the SPOT intensity was 3.
For KKAPPPVVKPKPRNF, the SPOT intensity was 360.
With QNTPPLPPKPKSPHL the SPOT intensity was 2.

These binders were tested against T19, Myo5, Q04439 (assay: SPOT array). Settings: median of control spots 471.
SSSSSPPPLPTRRDH was tested, and the SPOT intensity was 19.
For KKAPPPVVKPKPRNF, the SPOT intensity was 0.
In the case of QNTPPLPPKPKSPHL, the SPOT intensity is reported as 0.

These binders were tested against T20, Fus1, P11710 (assay: SPOT array). Settings: median of control spots 1200.
SSSSSPPPLPTRRDH showed an SPOT intensity of 1.
Binder KKAPPPVVKPKPRNF has an SPOT intensity of 1.
QNTPPLPPKPKSPHL gave an SPOT intensity of 0.

What follows are binders tested against T21, Hse1, P38753 (assay: SPOT array). Settings: median of control spots 1727.
In the case of SSSSSPPPLPTRRDH, the SPOT intensity is reported as 4.
KKAPPPVVKPKPRNF was tested, and the SPOT intensity was 0.
With QNTPPLPPKPKSPHL the SPOT intensity was 634.
